According to patent publication US20220249633A1:

molecular target: HLA-A*24 (human); experiment: UV-exchange ELISA, exchange yield grade

peptide exchange yield [%]	Binder
50 to 75	DYLKDPVTI [… (SEQ ID NO: 284)]
50 to 75	TYGKIDLGF [… (SEQ ID NO: 353)]
50 to 75	RFPVQGTVTF [… (SEQ ID NO: 294)]
50 to 75	YYLGSGRETF [… (SEQ ID NO: 291)]
> 75	LYTETRLQF [… (SEQ ID NO: 264)]
50 to 75	GYAFTLPLF [… (SEQ ID NO: 307)]
50 to 75	EYQEIFQQL [… (SEQ ID NO: 283)]
50 to 75	TYSNSAFQYF [… (SEQ ID NO: 318)]
> 75	TYIDTRTVF [… (SEQ ID NO: 297)]
50 to 75	TFDGHGVFF [… (SEQ ID NO: 308)]
50 to 75	NYAFLHRTL [… (SEQ ID NO: 342)]
> 75	KYGTLDVTF [… (SEQ ID NO: 275)]
50 to 75	LYSVIKEDF [… (SEQ ID NO: 303)]
50 to 75	IYAPTLLVF [… (SEQ ID NO: 310)]
> 75	FFHEGQYVF [… (SEQ ID NO: 289)]
> 75	SYQVIFQHF [… (SEQ ID NO: 296)]
50 to 75	EYNSDLHQF [… (SEQ ID NO: 344)]
20 to 49	VYPDTVALTF [… (SEQ ID NO: 288)]
50 to 75	VWLPASVLF [… (SEQ ID NO: 279)]
> 75	AYKSEVVYF [… (SEQ ID NO: 298)]
50 to 75	IYGEKLQFIF [… (SEQ ID NO: 273)]
> 75	SYGTILSHI [… (SEQ ID NO: 286)]
> 75	VYPHFSTTNLI [… (SEQ ID NO: 293)]
20 to 49	IFITKALQI [… (SEQ ID NO: 268)]
50 to 75	VYNEQIRDLL [… (SEQ ID NO: 354)]

peptide exchange yield [%]	Binder
50 to 75	IFHEVPLKF [… (SEQ ID NO: 351)]
50 to 75	SYLTQHQRI [… (SEQ ID NO: 341)]
50 to 75	YYSQESKVLYL [… (SEQ ID NO: 270)]
50 to 75	SYLVIHERI [… (SEQ ID NO: 295)]
> 75	RFLMKSYSF [… (SEQ ID NO: 271)]
50 to 75	VYFEGSDFKF [… (SEQ ID NO: 316)]
50 to 75	QYPYLQAFF [… (SEQ ID NO: 269)]
50 to 75	VYAEVNSL [VYAEVNSL (SEQ ID NO: 347)]
50 to 75	IFIDNSTQPLHF [… (SEQ ID NO: 257)]
50 to 75	EYNSDLHQFF [… (SEQ ID NO: 345)]
50 to 75	VYVGDALLHAI [… (SEQ ID NO: 285)]
50 to 75	FYIPHVPVSF [… (SEQ ID NO: 315)]
50 to 75	IYLEHTESI [… (SEQ ID NO: 348)]
> 75	EYLQNLNHI [… (SEQ ID NO: 311)]
> 75	KYGDFKLLEF [… (SEQ ID NO: 290)]
50 to 75	KYTDWTEFL [… (SEQ ID NO: 266)]
> 75	KQLDIANYELF [… (SEQ ID NO: 274)]
> 75	SYLNEAFSF [… (SEQ ID NO: 265)]
> 75	KYSDVKNLI [… (SEQ ID NO: 319)]
50 to 75	EYNEVANLF [… (SEQ ID NO: 304)]
50 to 75	AYAQLGYLL [… (SEQ ID NO: 258)]
> 75	FYPQIINTF [… (SEQ ID NO: 292)]
50 to 75	SYTSVLSRL [… (SEQ ID NO: 312)]
50 to 75	KYGNFIDKL [… (SEQ ID NO: 350)]
> 75	GYIKLINFI [… (SEQ ID NO: 261)]

peptide exchange yield [%]	Binder
50 to 75	NYLGGTSTI [… (SEQ ID NO: 343)]
50 to 75	NYLVDPVTI [… (SEQ ID NO: 282)]
50 to 75	TYPSQLPSL [… (SEQ ID NO: 300)]
50 to 75	KYQYVLNEF [… (SEQ ID NO: 299)]
20 to 49	SFLNIEKTEILF [… (SEQ ID NO: 267)]
50 to 75	RYILENHDF [… (SEQ ID NO: 263)]
50 to 75	LYLPVHYGF [… (SEQ ID NO: 302)]
50 to 75	QYSIISNVF [… (SEQ ID NO: 349)]
20 to 49	KYYRQTLLF [… (SEQ ID NO: 309)]
> 75	VYMNVMTRL [… (SEQ ID NO: 260)]
50 to 75	QYGGDLTNTF [… (SEQ ID NO: 352)]
> 75	KFDDVTMLF [… (SEQ ID NO: 301)]
50 to 75	NYSPGLVSLIL [… (SEQ ID NO: 281)]
20 to 49	YFIKSPPSQLF [… (SEQ ID NO: 259)]
50 to 75	VFDTSIAQLF [… (SEQ ID NO: 317)]
50 to 75	VYPAEQPQI [… (SEQ ID NO: 306)]
50 to 75	FYTFPFQQL [… (SEQ ID NO: 277)]
> 75	QYLDVLHAL [… (SEQ ID NO: 276)]
> 75	VYSSQFETI [… (SEQ ID NO: 262)]
> 75	NYENKQYLF [… (SEQ ID NO: 305)]
> 75	TYNPNLQDKL [… (SEQ ID NO: 280)]
> 75	RYVFPLPYL [… (SEQ ID NO: 272)]
50 to 75	IYNPNLLTASKF [… (SEQ ID NO: 287)]
50 to 75	RYFKGDYSI [… (SEQ ID NO: 314)]
> 75	KYTHFIQSF [… (SEQ ID NO: 313)]
